Data: the nanobody polyreactivity screen of Harvey et al. (2022)

Test: yeast display, Sf9 membrane polyspecificity reagent, FACS + sequencing; frameworks hold sequencing errors
Method in brief: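 Nanobodies from a synthetic yeast display library (Saccharomyces cerevisiae BJ5465), induced 36–48 hours with galactose, were stained 1 hour at 4 °C with 10% biotinylated, detergent-solubilized Sf9 membrane reagent, enriched on streptavidin microbeads, then FACS-sorted. Anti-HA (expression) and streptavidin (reagent binding) fluorescence set low and high (top ~1%) gates. Polyreactivity labels come from the gate of origin. Genes were colony-PCR amplified, MiSeq 2 × 250 sequenced and filtered by CDR length.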

| Sequence | polyreactivity (PSR sort gate) |
| --- | --- |
| QVQLVESGGGLVQAGGSLRLSCAASGITFRYYAMGWYRQAPGKERELVAAISSGGGTYYADSVKGRFTISRDNAKNTVYLQMNSLKPEDTAVYYCNVLRLYPSMDYWGQGTQVTVSS | high polyreactivity |
| QVQLVESGGGLVQAGGSLRLSCAASGSTFLVNAMGWYRQAPGKERELVAAITQSGGSTFYADSVKGRFTISRDNEKNTVYLQMNSLKPEDTAVYYWGQGTQVSVSS | low polyreactivity |
| QVQLVESGGGLVQAGGSLRLSCAGSGNIFSTYAMGWYRPAPGKVRELVASISENGGSTYYADSVKGRFTISRDNAKNTVYLQMNSLKPEDTAVYYCNADAYVYFDDGDYWGQGTQVTVSS | low polyreactivity |
| QVQLVESGGGLVQAGGSLRLSCAASGSNFFSNAMGWYRQAPGKERELVAAITSSGASTYYADSVKGRFTISRDNAKNTVYLQMNSLKPEDTAVYYCAVVGGGKRYGYWGQGTQVTVSS | high polyreactivity |
| QVQLVESGGCLVQAGGSLRLSCAASGFIFGSNVMGWYRQAPGKERELVAAISYSGASTYYADSVKGRFTISRDNAKNTVYLQMNSLKPEDTAVYYCNAESYYFYWPVYSYDYWGQGTQVTVSS | low polyreactivity |
| QVQLVESGAGLVQAGGRIRLSCAASGRTLYGNTMGWYRPAPWKERELVAAINWSGGRTRYADSVKGRFTNSRDNAKNTVYVEMNSVKPEDTAVYYCAATKRANHERFGSWGQGTQVTVSS | high polyreactivity |
| QVQLVESGGGLVQAGGSLRLSCAASGFIFRVYAMGWYRQAPGKERELVAAMSYSGGSTYYADSVKGRFTISRDNAKNTVYLQMNSLKPEDTAVYYCAAESYVSRYPYGYWGQGTQVTVSS | high polyreactivity |
| QVQLVESGGGFVQAGGSLRLSCAASGSIFDPYAMGWYIQAPGKERELVAAINWSGDSTYYADSVKGRFTISRDNAKNTVYLQMYSLKPEDTAVYYCAADPTDDTHLYYYWRQGTQVTVSS | low polyreactivity |
| QVQLVESGGGLVQAGGSLRLSCAASGRTFYYYAMGWYRQAPGKEREMVATISGGSSTNYADSVKWRFTISRDNAKNTVYLQMNSLKPEDTAVFYCAARWWRGGGYRPNYYKLKYDYWGQGTQVTVSS | high polyreactivity |
| QVQLVESGGGLVQAGGSLRISCAASVSIFPGYAMGWSRQAPGKERELVATITWSGGSTYYADSVKGRFTISRDNAKNTVYLQMNSLKPEDTAVYYCNADSNWYYQWNYYCLYDYWGQGTQVTVSS | low polyreactivity |
| QVQHVESGGGLVQAGGSLRLICAASGSTFRGYAMGWYRPAPGKERELVAAITSSGGSTYYADSVKGRFTISRDNAKNTVYLQMNSLKPEDTAVYSCAAASRRFGLYGYWGQGTQVTVSS | high polyreactivity |
| QVQLEESGGGLVQAGGSLRLSCPASGYTFESNAMGWSRQAPRKERELVAAINGGGGTYYADSVKGRFTISRDNGKNTVYLQMNSLKPEDTAVNVDIGFAYVPNYDYWGQGTQVTVSS | low polyreactivity |
| QVQLVESGGGLVQAGGSLRLSCAASGRTFSYAMGWYRQAPGKERELVAGISWSGGRTYYADSVKGRFTISRDNAKNTVYLQMNSLKPEDTAVYYCAAGGRARTYYYWGQGTQVTVSS | high polyreactivity |
| QVQLVESGGGLVQARGSLRLSCAASGSTFGRYVMGWYRQAPGKERELVAAISKNAGSTYYADSVKGRFTISRDNAKNTVYLQMTSLKPEDTAVYYCAADWRTKGYDSLGQGTQVTVSS | high polyreactivity |
| QVQLVESGGGLVQAGGSLRLSCAASGRTFRINAMGWYRQAPGKERELVAAITSIAGNTYYADSVKGRFTISRDNAKNTVYLQMNSLKPEDTAVYYCAVDSVPWGFRGAYGLTRYYYWGQGTQVTVSS | low polyreactivity |
| QVQLVESGGGLVQAGGSLRLSCAASGSIFVRNGMGWYIQAPGKERELVASITSGTITYYADSVKGRFTISRDNAKNTVYLQMNSLKPEDTAVYYCAARRDRGRVKFYYWGQGTQVTVSS | high polyreactivity |
| QVQLVESGGGLVQAGGSLRLSCAASGSIFLGYTMGWSRQAPGKERELVAAINSSGGSTYYADSVKGRFTISRDNAKNTVYLQMNSLKPEDTAVYYCAVANSILLFDSWGQGTQVTVSS | low polyreactivity |
| QVQLVESGGGLVQAGRSLRLSCAASGRIFSTNAMGRYRQAPGKERELVAAITRSSSTYYAYSVKGRFTISLDNAKNTVYLQINSLKPEDTAGYYCAASRFQYKSTQFYYWGQATQVTVSS | high polyreactivity |
| QVQLVESGGGLVQAGGSLRLSCAASGFTFSSNAMGSYRQAPGKERELVAAISFNSTSTYYADSVKVRFTISRDNAKNTVYLQMNSLKPEDTAVYYCAADVPRVQSEPEYDYSGQGTQVTVSS | low polyreactivity |
| QVQLVESGGGLVQAGGSLRLSCAASGSIFIANAMGWYRQAPGKERELVAAISSSDSSTYYADSVKGRFTISRDNAKNTVYLQMNSLKPEDTAVYYCAATYWYWYREGYYWGQGTQVTVSS | high polyreactivity |
| QVQLVESGGGLVQAGGSLRLSCAASGFTFQYYAMGWYRQAPGKERELVAVISRSGGRTYYADSVKGRFTISRDNGKNTVYLQMISLKPEDTAVYYCNAQSYIPTTETYDYWGQGTQVTVSS | high polyreactivity |
| QVQLVESGGGVVQAGGSLRLICAASGLTFDKYTMGRYRQAPGKERELVARISTSGSRTYYADSVKGRFTISRDNAKNTVYLQMNSLIPEDTEVYYCNKDGWIRRRRGYDYWGQGTQVTVSS | high polyreactivity |

| Sequence | polyreactivity (PSR sort gate) |
| --- | --- |
| QVQLVESGGGLVQAGGSLRLSCAASGIIFGTYVMGWYRQAPGKERELVAAINRSGGNTYYADSVKGRFTISRDNEKNTVYLQMNSLKPEDTAVYYCAAEEAYRSRRGGFDYWGQGTQVTVSS | high polyreactivity |
| QVQLVESGGGLVQAGGSLRLSCAASGITFYRYAMGWYRQAPGKERALVAAISWRSGSTNYADSVKGRFTISRDNAKNTVYLQMNSLKPADTAVYYCAARVADYPLFGGSSYNRMEYWGQGTQVTVTS | low polyreactivity |
| QVQLLESGGGLVQAGGSLRLSCAASGRILTGYAMGWYRQAPGKERELFSSINWRGGSTYYADSVKGRFTISRDNAKNTVYLQMISLIPEDTAVYYCAARVLVTGTYYTIYDYWGQCTQVTVSS | high polyreactivity |
| QVQLVESGGRLVQAGGSLRLSCAASGRIIGVNAMGWYRQAPGKERELVATITSGGSTYADSVKGRFTISRDNAKNTVYLQMNSLKPEDTAVYFCNALIYKRVTRYPYVRLMDYWGQGTQVTVSS | high polyreactivity |
| QVQLVESGGGLVQAGGSLRLSCAASGRIGTYAMGWYRQAPGKERELVAGIRSGGSTYYADSVKGRFTISRDNAKNTVYLQLNSLKPEDTAVYYCAADRGYRGATGKYDSWGQGTQVTVSS | high polyreactivity |
| QVQLVESGGGLVQAGGSLRLSCAASGRTFSTNAMGLYRQAPGKERELVAAISASGGSTYYADSVKGRFTISRDNAKTTVYLQMNSLKPEDTAVYYCAAYPGQWRTGYDYWGQGTQVTVSS | high polyreactivity |
| QVQLVESGGGLVQAGGSLRLSCAASGFIFPWYAMGWYRQAPGKERELVAAISSSGGRTYYADSVKGRFTISRDNAKNTVYLQMNSLKPEDTAVYYCNVANGLSQVYRYNYWGQGTQVTVSS | high polyreactivity |
| QVQLVESVGGLVQAGGSLRLSCAASGFTFHDYAMGWYRQAPGKERELVAAIYFSGGRTYYADSVKGRFTISRDNAKNTVYLQMNSLKPEDNAVYYCNVPYYSFRELSSYYWGQGTQVTVSS | high polyreactivity |
| QVQLVESGGGLVQAGGSLRLICAASGRIFYYNAMGWYRQAPGKERELVAVITRSGGRTFYADSVKGRFTISRDNAKNTGYLQMNSLKPEDTAVYYCAARYRYYPVTTRGYYWGQGTQVTVSS | high polyreactivity |
| QVQLQECGGALVQAGGSLRLSCAASGTFSNSEKWLYCQAPGKERELVSTIGVGGSTNYADSVKGRFTISRDNAKNTVYLQLNSLKPEDTAVYHCAAYGAASYFHYYRGQGTQVTVSS | low polyreactivity |
| QVQLVESGGGLVQAGGSLRLSCDASGFIFPYYAMGWYRQAPGKERELVARITRGGRTYYADSVKGRFTISRDNAKNTVYLQMNSLKPEDTAVYYCATTGSSYFHSFEYDYWGQGTQVTVSS | low polyreactivity |
| QVQLVESGGGLVQAGGSLRLSCAASGFIFKSYAMGWYRQAPGQERELVAAISRSGSSTYYADSVKGRFTISRDNAKNTVYLLMNSLKPEDTAVYYCAKKGYRFIHFGYDYWGQGTQVTVSS | high polyreactivity |
| QVQLVQSGGGLVQAGGTLRLTCAASGSTYAVYAMGWYRQAPGKERELVATIRGRGGSTYYADSVKGRFTISRDYAKNTVYLQMNSLKPEDTAVYYCAADSYPSLGKYDSWGQGTQVTVSS | high polyreactivity |
| QVQLVESGGGLVQAGGSLLLSCAASGFTFLWYDMGWYRQSPGKERELVAAIDASDGSTYYADSVKGRFTISRDNAKNTVYLQMNSLKPEDTAVYYCAVAAGYFGKWTYYYWGQGTQVTVSS | high polyreactivity |
| QVQLVESGGGLVQAGGSLRLSCAASGSIFIDNAMGWDRQAPGKEREFVAAISKSGTSTYYADSVKGRFTISRDNAKNTVYLQMNSLKPEDTAVYYCAVRRPRPYSNYYYWGQGTQVTVSS | high polyreactivity |
| QVQLVESGGGLVQAGGSLRLSCAPSGSIFRLYAMGWYRQAPGKERELVAAITSSGGRTYYADSVKGRFTISRDNAKNTVYLQINSLKPVDTAVYYCAAVGNRGDDYYWGQGTQVTVSS | high polyreactivity |
| QVQLVESGGGLVQAGGSLRLSCAASGSIFSYYAMGWYRQAPGKERELVAGISISTGSTYYADSVKGRFTISRDNAKNTVYLQMNSLIPEDTAVYYCNASALDPLYAKDDYWGQGTQVTVSS | low polyreactivity |
| QLQLVESGGGLVQAGGSLRLSCAASGRTFRSYTMGRYRQAPGKERELVASITRSGVSTYYADSVKGRFTISRDNAKNTVYLQMNSLKPEDTAVYYCAAYSVFRSYDYWGQGTQVTVSS | high polyreactivity |
| QVQLVESGGGLVQAGGSLRLICADSGRIVPGYAMGWYRQAPGKERELVAAISTNGGRTYYADSVKGRFTISRDNAKYTVYFQRNSLKPEDTAVYYCNAARAVYTQKRFDSWGQGTQVTVSS | high polyreactivity |
| QVQLVESGGGLVQAGGSLRLSCAASGRIFGAYAMGWYRQAPGKERELVAAITFRGGSTYYADSVKGRFTISRDNAKNTVYLQMNSLKPEDTAVYYCAADILDYLHIYDYWGQGTQVTVSS | low polyreactivity |
| QVQLVESGGGLVQAGGSLRLRCAASARTFGKYAMGWYRQAPGKERELVASNSLSGGSTYYADSVKGRFTISRDNAKNTVYLQMNSLKPEDTAVYSCAAKHGWYGLGYWGQGTQVTVSS | low polyreactivity |
